Reference: patent publication US20210009703A1 (TUSK THERAPEUTICS, published 2021)

Tests used:
[1] = target: T1, human CD25 expressed on cells (human, UniProt P01589 22-272); experiment: flow cytometry on SU-DHL-1 cells, PE anti-human IgG Fc secondary
T1 construct: Endogenous CD25 on human cells; also called CD25 on human in vitro differentiated Treg cells, SU-DHL-1 cells, SR-786 cells and PBMC
T1 sequence: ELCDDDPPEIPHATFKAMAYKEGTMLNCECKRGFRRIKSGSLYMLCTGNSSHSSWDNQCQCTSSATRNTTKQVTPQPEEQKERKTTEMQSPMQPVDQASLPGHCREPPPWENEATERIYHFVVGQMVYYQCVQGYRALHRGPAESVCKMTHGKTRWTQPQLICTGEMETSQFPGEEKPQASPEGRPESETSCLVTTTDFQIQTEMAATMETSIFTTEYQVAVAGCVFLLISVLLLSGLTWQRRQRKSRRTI
Procedure: Cells were washed again and resuspended in FACS buffer containing DAPI and acquired on the Intellicyt iQue. Live cells were gated using FSC vs SSC parameters by flow cytometry during sample acquisition. Geo Mean Intensity of stained cells were plotted on an XY chart, graphing Geo Mean Intensity against the log of the concentration, and the data fit to a non-linear regression curve from which the EC50 is calculated.

[2] = target: T2, recombinant human CD25 his tagged (human, UniProt P01589 22-240); experiment: ForteBio BLI, avidity format: rhCD25-His on Ni-NTA sensors, IgG in solution; IgG in solution, avidity format
T2 construct: also called rhCD25-his; rhCD25; not shown: His tag
T2 sequence: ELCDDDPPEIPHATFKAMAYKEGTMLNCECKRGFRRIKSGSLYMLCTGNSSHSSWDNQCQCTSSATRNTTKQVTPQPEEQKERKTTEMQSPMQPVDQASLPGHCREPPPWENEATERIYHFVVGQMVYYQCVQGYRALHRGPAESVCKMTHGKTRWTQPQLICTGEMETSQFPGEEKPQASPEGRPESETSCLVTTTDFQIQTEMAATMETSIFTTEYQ

EC50 (read off the curve) [1]: ~0.2 µg/mL | Kd [2]: 1.2 nM
B1: aCD25-a-672 (antibody, V domains shown)
VH: QVQLVQSGAEVKKPGSSVKVSCKASGGTFSSYAISWVRQAPGQGLEWMGGIIPIFGTANYAQKFQGRVTITADESTSTAYMELSSLRSEDTAVYYCAREYDYKEDWGQGTLVTVSS
VL: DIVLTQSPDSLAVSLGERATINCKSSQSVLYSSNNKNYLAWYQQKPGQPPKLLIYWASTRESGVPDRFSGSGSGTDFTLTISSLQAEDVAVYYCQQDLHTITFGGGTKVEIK
notes: An afucosylated IgG1 form was also made
